Measurements published in patent US20140037547A1 (UNIVERSITY OF VERMONT AND STATE AGRICULTURAL COLLEGE, published 2014).

Legend:
SW:329-349 = molecular target: T1, SW:329-349
T1 chain: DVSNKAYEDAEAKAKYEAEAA

SW:329-358 = molecular target: T2, SW:329-358
T2 chain: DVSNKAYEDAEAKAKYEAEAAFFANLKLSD

[1] = molecular target: T3, wild-type PKG Iα (cGMP-dependent protein kinase type Iα, full length) (UniProt P00516 2-671); test: cell-based or functional assay
T3 sequence (looked up): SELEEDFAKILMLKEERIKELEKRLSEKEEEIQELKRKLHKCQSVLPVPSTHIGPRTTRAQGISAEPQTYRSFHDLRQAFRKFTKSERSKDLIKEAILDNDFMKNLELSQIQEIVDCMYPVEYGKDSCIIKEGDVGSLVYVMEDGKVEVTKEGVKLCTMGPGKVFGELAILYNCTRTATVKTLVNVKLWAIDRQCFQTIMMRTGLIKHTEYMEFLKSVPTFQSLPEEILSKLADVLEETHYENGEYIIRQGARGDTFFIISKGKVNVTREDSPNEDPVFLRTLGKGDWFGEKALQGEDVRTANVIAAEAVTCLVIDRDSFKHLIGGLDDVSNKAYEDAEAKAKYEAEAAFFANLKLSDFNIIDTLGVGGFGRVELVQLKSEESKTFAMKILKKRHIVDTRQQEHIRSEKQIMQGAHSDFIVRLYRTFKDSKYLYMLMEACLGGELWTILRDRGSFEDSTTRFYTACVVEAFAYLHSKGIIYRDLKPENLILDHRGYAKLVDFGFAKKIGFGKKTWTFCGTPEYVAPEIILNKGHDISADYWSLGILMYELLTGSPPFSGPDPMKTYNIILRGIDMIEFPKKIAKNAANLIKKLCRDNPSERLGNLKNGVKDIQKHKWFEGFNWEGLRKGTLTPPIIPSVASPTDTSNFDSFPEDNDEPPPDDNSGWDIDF

B1: wild-type PKG Iα (cGMP-dependent protein kinase type Iα, full length) (protein)
chain: T3 sequence (looked up)
SW:329-349
  activation of PKG Iα (32P-incorporation assay, cGMP priming conditions): rendered a completely inactive SW-peptide derivative
SW:329-358
  Ka (activation of PKG Iα, 32P-incorporation assay): Ka=500 µM

## DVSNKAYEDAEAKAKYEAEAAFFANLK [SW:329-355]
[1]
  Ka (activation of PKG Iα, cGMP priming conditions): 500 µM

## DVSNKAYEDAEAKAKYEAEAAFFANLKLSD [SW:329-358]
[1]
  Ka (activation of PKG Iα, kinase primed with 100 nM cGMP): 40 µM
  shift of the activation profile on priming with 100 nM cGMP: 20 fold

## AAFFANLK [SW:348-355 AAFFANLK]
[1]
  Ka (activation of PKG): 500 µM
  activation relative to activation associated with cGMP: 30%
